Source: patent publication US20110158954A1, “METHOD FOR PRODUCING GAMMA DELTA T CELL POPULATION” (priority 2007, published 2011)

System: γδ T cells
Test: Expansion of γδ T cell population using pamidronate or IPP (Example 1)
Assay type: cell-based
Details: human PBMCs, IL-2 20 U/mL, immobilized FN fragment, day 14
Protocol: Apheresis was performed, or 50 mL blood was collected from human healthy donor obtained with informed consent. The collected blood was then diluted 2-folds with phosphate buffered saline (manufactured by NEXELL or SIGMA, hereinafter referred to as “PBS”), overlaid on Ficoll-paque (manufactured by GE Healthcare Bio-Science), and centrifuged at 600×g for 20 minutes. Peripheral blood mononuclear cells (hereinafter referred to as “PBMCs”) in an intermediate layer were collected with a pipette, and washed. The collected PBMCs were suspended in a storage solution composed of 90% (v/v) FBS (manufactured by MP Biomedicals, LLC)/10% (v/v) DMSO (manufactured by SIGMA), or a storage solution composed of equivolumes of CP-1 (manufactured by KYOKUTO PHARMACEUTICAL INDUSTRIAL CO., LTD.) containing 8% (w/v) human serum albumin (name of formulation: Buminate, manufactured by Baxter Limited, hereinafter referred as to “HSA”) and an RPMI 1640 medium (manufactured by SIGMA), and stored in liquid nitrogen. During expansion of γδ T cells, these stored PBMCs were rapidly melted in water bath at 37° C., and washed with RPMI 1640 medium containing 10 μg/mL DNase (manufactured by Calbiochem), 10% (v/v) human AB serum (manufactured by Cambrex), 2 mM L-glutamine (manufactured by Cambrex), and 100 μg/mL streptomycin sulfate (manufactured by MEIJI SEIKA KAISHA, LTD.) (hereinafter referred to as “10HRPMI+L-Gln”) or Iscove's Modified Dulbecco's Medium (IMDM) (manufactured by Invitrogen) containing 10 μg/mL DNase and 10% (v/v) human AB serum (hereinafter referred to as “10HIMDM”). Thereafter, the number of live cells was calculated by trypan blue staining method. The cells were subjected to each experiment.
A fibronectin fragment (hereinafter referred to as a “FN fragment”) (CH-296 and H296-H296) was immobilized on a culture equipment used in the following experiment. Concretely, a buffer having a pH of 5.0 composed of 2.20% (w/v) sodium citrate dihydrate, 0.80% (w/v) citric acid monohydrate and 2.20% (w/v) glucose (all manufactured by Nakalai Tesque Inc.) (hereinafter referred to as “ACD-A solution (pH 5.0)”), containing CH-296 (final concentration: 25 μg/mL) or H296-H296 (final concentration: 3 μg/mL), was added to a 24-well cell culture plate (manufactured by Becton Dickinson or Corning), in a volume of 240 μL each.
These culture equipments was incubated for 5 hours or more at room temperature. Immediately before use, the ACD-A solution (pH 5.0) containing CH-296 or H296-H296 was removed by aspiration from these culture equipments, and thereafter each well was washed with twice PBS, and then once with RPMI 1640 medium, and the culture equipments were subjected to each experiment. As a control, a plate to which nothing was immobilized was used.
PBMCs prepared in Example 1-(1) were suspended in 10HRPMI+L-Gln or 10HIMDM so as to have a concentration of 1×10^6 cells/mL, to prepare a cell suspension. Thereafter, the above-mentioned cell suspension was added to a plate to which nothing was immobilized or a plate immobilized with CH-296 or H296-H296, prepared in Example 1-(2), in a volume of 1 mL/well each. […]

[1] = medium 10HRPMI + L-Gln, stimulant pamidronate 5 μM

Molecule | Expansion Fold of γδ T Cells (Folds) Fourteenth Day of Culture [1] | Expansion Fold of γδ T Cells (Folds) Fourteenth Day of Culture (medium 10HIMDM, stimulant IPP 5 μM) | Expansion Fold of γδ T Cells (Folds) Fourteenth Day of Culture (medium 10HIMDM, stimulant pamidronate 5 μM) | Expansion Fold of γδ T Cells (Folds) Fourteenth Day of Culture (medium 10HRPMI + L-Gln, stimulant IPP 5 μM)
CH-296: polypeptide comprising a cell binding domain, a heparin binding domain and a CS-1 domain of fibronectin (SEQ ID NO: 13) | ×3.85 Folds | – | – | –
H296-H296: modified fibronectin fragment in which two H-296's are connected to each other (SEQ ID NO: 22) (protein, Fibronectin fragment named H296-H296) AIPAPTDLKFTQVTPTSLSAQWTPPNVQLTGYRVRVTPKEKTGPMKEINLAPDSSSVVVSGLMVATKYEVSVYALKDTLTSRPAQGVVTTLENVSPPRRARVTDATETTITISWRTKTETITGFQVDAVPANGQTPIQRTIKPDVRSYTITGLQPGTDYKIYLYTLNDNARSSPVVIDASTAIDAPSNLRFLATTPNSLLVSWQPPRARITGYIIKYEKPGSPPREVVPRPRPGVTEATITGLEPGTEYTIYVIALKNNQKSEPLIGRKKTDELPQLVTLPHPNLHGPEILDVPSTAMAIPAPTDLKFTQVTPTSLSAQWTPPNVQLTGYRVRVTPKEKTGPMKEINLAPDSSSVVVSGLMVATKYEVSVYALKDTLTSRPAQGVVTTLENVSPPRRARVTDATETTITISWRTKTETITGFQVDAVPANGQTPIQRTIKPDVRSYTITGLQPGTDYKIYLYTLNDNARSSPVVIDASTAIDAPSNLRFLATTPNSLLVSWQPPRARITGYIIKYEKPGSPPREVVPRPRPGVTEATITGLEPGTEYTIYVIALKNNQKSEPLIGRKKTDELPQLVTLPHPNLHGPEILDVPST | ×5.76 Folds | ×4.39 Folds | ×3.18 Folds | ×16.27 Folds
